B1: Programmed cell death 6-interacting protein (Homo sapiens), Q8WUM4 (parent)
chain: MATFISVQLKKTSEVDLAKPLVKFIQQTYPSGGEEQAQYCRAAEELSKLRRAAVGRPLDKHEGALETLLRYYDQICSIEPKFPFSENQICLTFTWKDAFDKGSLFGGSVKLALASLGYEKSCVLFNCAALASQIAAEQNLDNDEGLKIAAKHYQFASGAFLHIKETVLSALSREPTVDISPDTVGTLSLIMLAQAQEVFFLKATRDKMKDAIIAKLANQAADYFGDAFKQCQYKDTLPKEVFPVLAAKHCIMQANAEYHQSILAKQQKKFGEEIARLQHAAELIKTVASRYDEYVNVKDFSDKINRALAAAKKDNDFIYHDRVPDLKDLDPIGKATLVKSTPVNVPISQKFTDLFEKMVPVSVQQSLAAYNQRKADLVNRSIAQMREATTLANGVLASLNLPAAIEDVSGDTVPQSILTKSRSVIEQGGIQTVDQLIKELPELLQRNREILDESLRLLDEEEATDNDLRAKFKERWQRTPSNELYKPLRAEGTNFRTVLDKAVQADGQVKECYQSHRDTIVLLCKPEPELNAAIPSANPAKTMQGSEVVNVLKSLLSNLDEVKKEREGLENDLKSVNFDMTSKFLTALAQDGVINEEALSVTELDRVYGGLTTKVQESLKKQEGLLKNIQVSHQEFSKMKQSNNEANLREEVLKNLATAYDNFVELVANLKEGTKFYNELTEILVRFQNKCSDIVFARKTERDELLKDLQQSIAREPSAPSIPTPAYQSSPAGGHAPTPPTPAPRTMPPTKPQPPARPPPPVLPANRAPSATAPSPVGAGTAAPAPSQTPGSAPPPQAQGPPYPTYPGYPGYCQMPMPMGYNPYAYGQYNMPYPPVYHQSPGQAPYPGPQQPSYPFPQPPQQSYYPQQ
partner: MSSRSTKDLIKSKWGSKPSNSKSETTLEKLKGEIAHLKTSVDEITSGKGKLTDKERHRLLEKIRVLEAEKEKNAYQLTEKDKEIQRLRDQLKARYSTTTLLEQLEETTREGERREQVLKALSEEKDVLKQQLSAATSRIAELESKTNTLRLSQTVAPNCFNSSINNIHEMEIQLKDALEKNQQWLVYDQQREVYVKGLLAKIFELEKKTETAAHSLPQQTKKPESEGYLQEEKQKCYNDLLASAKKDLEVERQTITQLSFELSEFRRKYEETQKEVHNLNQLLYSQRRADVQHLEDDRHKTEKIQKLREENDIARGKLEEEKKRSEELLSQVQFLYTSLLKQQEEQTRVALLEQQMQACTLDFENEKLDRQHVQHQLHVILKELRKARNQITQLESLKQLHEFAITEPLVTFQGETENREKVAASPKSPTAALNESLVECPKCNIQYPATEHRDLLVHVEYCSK
B2: Programmed cell death protein 6 (Homo sapiens), O75340 (parent)
chain: MAAYSYRPGPGAGPGPAAGAALPDQSFLWNVFQRVDKDRSGVISDTELQQALSNGTWTPFNPVTVRSIISMFDRENKAGVNFSEFTGVWKYITDWQNVFRTYDRDNSGMIDKNELKQALSGFGYRLSDQFHDILIRKFDRQGRGQIAFDDFIQGCIVLQRLTDIFRRYDTDQDGWIQVSYEQYLSMVFSIV
B3: Programmed cell death 6-interacting protein (Homo sapiens), Q8WUM4 (parent)
chain: B1 chain

Variants of: B1
Conditions: with cep55_human CEP55, Q53EZ4

Which “effect of a mutation on the interaction” value does the source give for P802A here?
Its value is “disrupting interaction”.

Variants of: B2
Conditions: with pdc6i_human PDCD6IP

For W95A, which “effect of a mutation on the interaction” value is on record?
Its value is “disrupting interaction”.

R125A was tested. Which “effect of a mutation on the interaction” value did it give?
The value was “disrupting interaction”.

Y180A was tested. Which “effect of a mutation on the interaction” value did it give?
The value was “disrupting interaction”.

How did the “effect of a mutation on the interaction” value turn out when D169A was run?
The value was “disrupting interaction”.

With Y91A as the variant, how does the “effect of a mutation on the interaction” value read?
The value was “disrupting interaction”.

For Y124A, which “effect of a mutation on the interaction” value is on record?
Its value is “disrupting interaction”.

Variants of: B3
Conditions: with pdcd6_human PDCD6, O75340

Which “effect of a mutation on the interaction” value does the source give for P802A here?
Its value is “disrupting interaction”.

With P804A as the variant, how does the “effect of a mutation on the interaction” value read?
The value was “disrupting interaction”.

Y803A was tested. Which “effect of a mutation on the interaction” value did it give?
The value was “disrupting interaction”.

Variants of: B3
Conditions: with pdcd6_human PDCD6, O75340
Remark: another data set of the same source

Which “effect of a mutation on the interaction” value does the source give for P802A here?
Its value is “decreasing interaction”.

For P804A, which “effect of a mutation on the interaction” value is on record?
The value was “decreasing interaction”.

How did the “effect of a mutation on the interaction” value turn out when Y803A was run?
Its value is “decreasing interaction”.
